The results in this text go back to the RNAGym collection of RNA variant scans (doi:10.7554/elife.80360).

The chains are these.
B1: Hairpin Ribozyme (parent)
chain: GUCCUCUUUCACGUGCGCGUGAAAGAGAGAAGUGAACCAGAGAAACACACGUUGUGGUAUAUUACCUGGUA

This data set covers variants of B1. Kind of data set: self-cleavage, relative activity (ratio to wild type); higher = more cleavage; co-transcriptional.
Consider A44C A59C, for which the self-cleavage was 0.15.

For G25U A30C, the self-cleavage was 0.146.

Turning to A31C G32C, the self-cleavage was 0.228.

Consider C12G A44G, for which the self-cleavage was 0.156.

As for C16U U58C, the self-cleavage is 1.1.

For G17C U33G, the self-cleavage came to 0.121.

Turning to A28C A59U, the self-cleavage came to 0.14.

Take A41G C46A: the self-cleavage was found to be 0.151.

Take U60G U62C: the self-cleavage was determined as 0.244.

As for C50G A61G, the self-cleavage came to 0.175.

As for C6A U62A, the self-cleavage is 0.127.

For C18A C50U, the self-cleavage came out at 0.428.

As for G19A U20C, the self-cleavage came out at 1.12.

Regarding A30G U70C, the self-cleavage is 0.0846.

In the case of G13A C66U, the self-cleavage was determined as 0.419.

With A11C G25C, the self-cleavage stood at 0.457.

Regarding U60G U67G, the self-cleavage stood at 0.202.

In the case of C6U U14A, the self-cleavage was 0.853.

As for C46A G57U, the self-cleavage is 0.123.

As to G40U U60A, the self-cleavage was determined as 0.191.

Turning to C65A A71C, the self-cleavage worked out at 1.07.

As to C18A C66U, the self-cleavage was 0.594.

Consider C18A C66G, for which the self-cleavage is 0.113.

Turning to A23C A30C, the self-cleavage was found to be 0.246.

For C10A C66U, the self-cleavage was 0.312.

For the variant A11U U53C, the self-cleavage came to 0.975.

Take A11G G51A: the self-cleavage stood at 0.93.

For U2A A28C, the self-cleavage worked out at 0.258.

Consider G32A U63A, for which the self-cleavage turned out to be 0.132.

As for U9A U52A, the self-cleavage came out at 0.877.

Take U7A C12G: the self-cleavage was determined as 0.662.

Take C48U U58C: the self-cleavage amounted to 0.333.

As for C38G C66A, the self-cleavage turned out to be 0.151.

Consider A45U C48A, for which the self-cleavage came out at 0.14.

For U5A C16G, the self-cleavage stood at 0.231.

Regarding G17C G68U, the self-cleavage came to 0.181.

On to U53A G56C, for which the self-cleavage was 0.208.

Take U5C G15C: the self-cleavage came to 0.469.

In the case of G13A, the self-cleavage turned out to be 0.87.

For the variant G25C G32C, the self-cleavage was found to be 0.116.

As for A11G G56C, the self-cleavage is 0.128.

For G19C G29C, the self-cleavage was 0.111.

On to G19U A31G, for which the self-cleavage worked out at 0.624.

In the case of A22G U70G, the self-cleavage stood at 0.658.

In the case of C3U G40A, the self-cleavage was found to be 0.169.

On to G15U A43U, for which the self-cleavage is 0.104.

Consider A28C G51C, for which the self-cleavage amounted to 0.336.

Regarding G15U A64C, the self-cleavage was determined as 0.16.

As for C16U A64C, the self-cleavage came to 0.133.

Consider U2A A35C, for which the self-cleavage came out at 0.374.

Turning to U8C U33A, the self-cleavage was 0.216.

On to C10A U33A, for which the self-cleavage came to 0.153.

Consider A36U C66U, for which the self-cleavage amounted to 0.166.

For A31G A35U, the self-cleavage was 0.378.

On to U14A A41G, for which the self-cleavage was 0.867.

As for C6G G21C, the self-cleavage turned out to be 0.125.

Turning to U58C G69A, the self-cleavage came to 0.421.

For the variant U7C G21C, the self-cleavage came to 0.962.

With A26G G69U, the self-cleavage was determined as 0.204.

As for A41G G51C, the self-cleavage amounted to 0.677.

For the variant C10G A31C, the self-cleavage came out at 0.198.

In the case of G19U C38G, the self-cleavage is 0.225.

A35U A45G: the self-cleavage is 0.0965.

With A36C C46A, the self-cleavage stood at 0.026.

Regarding C3U U62C, the self-cleavage was found to be 0.23.

For G15U U20C, the self-cleavage is 1.

In the case of U53A U55G, the self-cleavage stood at 0.389.

For the variant U2G U33A, the self-cleavage came to 0.115.

As to G1U A64U, the self-cleavage amounted to 0.119.

On to A39C U62G, for which the self-cleavage was found to be 0.108.

Turning to A24G G32U, the self-cleavage was found to be 0.0918.

In the case of A39G C66U, the self-cleavage was determined as 0.194.

G21A A61G: the self-cleavage is 0.116.

As for G21A A47U, the self-cleavage turned out to be 0.162.

Regarding U53C U60C, the self-cleavage is 1.5.

With C16A U70A, the self-cleavage amounted to 0.83.

As to U33A G68C, the self-cleavage amounted to 0.138.

Turning to A43C U67A, the self-cleavage is 0.0731.

U60G A61U: the self-cleavage was 0.259.

For the variant G17C A49G, the self-cleavage came out at 0.409.

For the variant U20C U62G, the self-cleavage stood at 0.116.

Consider U9C A41C, for which the self-cleavage amounted to 0.837.

For the variant G19U U33C, the self-cleavage turned out to be 0.202.

Consider C12U A36G, for which the self-cleavage was determined as 1.17.

Turning to A31C G40C, the self-cleavage was 0.0931.

With A41G A61C, the self-cleavage amounted to 0.299.

In the case of A35G U52G, the self-cleavage was found to be 0.97.

Regarding C4A G68A, the self-cleavage was found to be 0.17.

With C6U U60G, the self-cleavage was found to be 0.502.

As for G27U G56U, the self-cleavage was determined as 0.108.

Turning to G19U U55A, the self-cleavage worked out at 0.287.

For the variant U8A A11U, the self-cleavage worked out at 0.619.

With A23C A36G, the self-cleavage was found to be 1.08.

As to A61U C66G, the self-cleavage was 0.233.

Turning to G19U A22G, the self-cleavage was 0.715.

In the case of U20G G32U, the self-cleavage amounted to 0.162.

For G21A A59C, the self-cleavage turned out to be 0.13.

For U55C G68A, the self-cleavage worked out at 0.166.

As for C50G C66A, the self-cleavage came to 0.193.

As to G13C A22G, the self-cleavage is 0.496.

For A49C C65A, the self-cleavage was 0.225.

Turning to C18G A31U, the self-cleavage was 0.165.

Take G32U U70C: the self-cleavage is 0.138.

For A30G C46U, the self-cleavage was found to be 0.236.

Consider C10U G68C, for which the self-cleavage worked out at 0.229.

In the case of C3A C50U, the self-cleavage was determined as 0.236.

Take U7G U14A: the self-cleavage is 0.666.

In the case of G32A A64C, the self-cleavage came to 0.14.

For the variant U5G A23G, the self-cleavage came to 0.372.

As to U33G G69U, the self-cleavage was 0.123.

In the case of C66A G68A, the self-cleavage came to 0.126.

With A31U A49C, the self-cleavage came to 0.139.

Turning to C50A U63C, the self-cleavage is 0.198.

With A45G U53A, the self-cleavage was 0.234.

Take C66U U70C: the self-cleavage was determined as 0.506.

In the case of G42C U60C, the self-cleavage amounted to 0.419.

Regarding A41C G42A, the self-cleavage worked out at 0.805.

A31G G56U: the self-cleavage came out at 0.106.

Consider A45U A64C, for which the self-cleavage was 0.18.

As for A11G C16U, the self-cleavage worked out at 0.902.

For A36G G54A, the self-cleavage was determined as 0.715.

Regarding U9G U52G, the self-cleavage is 0.492.

For the variant C50G G68C, the self-cleavage was 0.0881.

Take A24U G42A: the self-cleavage worked out at 0.257.

For the variant G1C U60A, the self-cleavage came out at 0.123.

On to U8C G57C, for which the self-cleavage was found to be 0.172.

Consider A43C A45C, for which the self-cleavage was found to be 0.153.

On to G40C C48A, for which the self-cleavage is 0.128.

On to A23U A35G, for which the self-cleavage worked out at 0.967.

With A11C C12U, the self-cleavage was 0.766.

Regarding C4G G13C, the self-cleavage stood at 0.178.

As to G17U A64G, the self-cleavage worked out at 0.624.

In the case of A35C A71G, the self-cleavage turned out to be 0.422.

As for G21U A59G, the self-cleavage worked out at 0.0937.

Consider U58G A71G, for which the self-cleavage was found to be 0.935.

Take C12U C48U: the self-cleavage was found to be 0.126.

Take G32U C38A: the self-cleavage came out at 0.0741.

Regarding U58C, the self-cleavage is 0.994.

For U58G, the self-cleavage stood at 0.788.

With G19A A31G, the self-cleavage was found to be 0.7.

As for G21C C37U, the self-cleavage amounted to 0.583.

With A24C U53C, the self-cleavage stood at 0.735.

For A11G G21C, the self-cleavage came out at 0.618.

On to U20G C37U, for which the self-cleavage is 0.594.

As to U20G G51A, the self-cleavage was determined as 0.909.

Take A45G C46U: the self-cleavage turned out to be 0.223.

G19C C65A: the self-cleavage is 0.877.

Consider G13C U63C, for which the self-cleavage turned out to be 0.111.

For G27U G34U, the self-cleavage is 1.15.

Turning to C12A G34A, the self-cleavage was found to be 1.21.

For U8C C65U, the self-cleavage was 0.166.

U20A U70C: the self-cleavage is 0.663.

G13C A26U: the self-cleavage was found to be 0.406.

For U20A G29U, the self-cleavage is 0.165.

Take A11G A39U: the self-cleavage is 0.495.

Consider C48G U67C, for which the self-cleavage worked out at 0.117.

For U9A A11U, the self-cleavage is 0.541.

With U33C U63A, the self-cleavage worked out at 0.142.

As to U14A C48G, the self-cleavage worked out at 0.196.

For A22G U33G, the self-cleavage came out at 0.111.

For G13C C38U, the self-cleavage is 0.384.

With C4G A39U, the self-cleavage was determined as 0.123.

Consider A22G U63G, for which the self-cleavage turned out to be 0.171.

With C10G G42U, the self-cleavage stood at 0.214.

For G15U G42A, the self-cleavage came to 0.207.

On to C16G A47G, for which the self-cleavage is 0.187.

Turning to G32A C65A, the self-cleavage came to 0.0853.
